Measured values published in the supplement of paper PMC5998384.

Assays:
HeLa Kyoto [1] = experiment: solubility in G1/S (NP-40 vs SDS abundance) (log2 ratio); higher = more soluble; details: cell cycle stage: G1/S
HeLa Kyoto [2] = experiment: melting temperature (median over replicates), in situ; higher = more thermally stable
HeLa Kyoto [3] = experiment: solubility change mitosis vs G1/S (difference of NP-40 vs SDS log2 ratios) (log2 ratio difference); higher = more soluble in mitosis
HeLa Kyoto [4] = experiment: thermal stability score vs G1/S (z-score of summed log2 fold changes over temperatures); higher = more thermally stable than in G1/S
[5] = cell cycle stage: early G1 (4.5 h after nocodazole release)
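For melting temperature (median over replicates), in situ in this document: HeLa Kyoto cells synchronized by double thymidine or nocodazole block, proteins quantified by TMT10plex mass spectrometry, three independent biological replicates.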
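For solubility change mitosis vs G1/S (difference of NP-40 vs SDS log2 ratios) in this document: synchronized HeLa Kyoto cells (double thymidine block for G1/S, nocodazole release for mitosis), protein amounts in NP-40 versus SDS lysates quantified by mass spectrometry, three biological replicates.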
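For solubility in G1/S (NP-40 vs SDS abundance) in this document: HeLa Kyoto cells arrested at G1/S by double thymidine block, proteins quantified by TMT10plex mass spectrometry in mild NP-40 versus SDS extracts, three biological replicates.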
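For thermal stability score vs G1/S (z-score of summed log2 fold changes over temperatures) in this document: synchronized HeLa Kyoto cells, proteins quantified by TMT10plex mass spectrometry, three biological replicates, mitosis taken 0.5 h after nocodazole release, G1/S directly after double thymidine block.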

XPO4, sequence (chain, as listed by the source): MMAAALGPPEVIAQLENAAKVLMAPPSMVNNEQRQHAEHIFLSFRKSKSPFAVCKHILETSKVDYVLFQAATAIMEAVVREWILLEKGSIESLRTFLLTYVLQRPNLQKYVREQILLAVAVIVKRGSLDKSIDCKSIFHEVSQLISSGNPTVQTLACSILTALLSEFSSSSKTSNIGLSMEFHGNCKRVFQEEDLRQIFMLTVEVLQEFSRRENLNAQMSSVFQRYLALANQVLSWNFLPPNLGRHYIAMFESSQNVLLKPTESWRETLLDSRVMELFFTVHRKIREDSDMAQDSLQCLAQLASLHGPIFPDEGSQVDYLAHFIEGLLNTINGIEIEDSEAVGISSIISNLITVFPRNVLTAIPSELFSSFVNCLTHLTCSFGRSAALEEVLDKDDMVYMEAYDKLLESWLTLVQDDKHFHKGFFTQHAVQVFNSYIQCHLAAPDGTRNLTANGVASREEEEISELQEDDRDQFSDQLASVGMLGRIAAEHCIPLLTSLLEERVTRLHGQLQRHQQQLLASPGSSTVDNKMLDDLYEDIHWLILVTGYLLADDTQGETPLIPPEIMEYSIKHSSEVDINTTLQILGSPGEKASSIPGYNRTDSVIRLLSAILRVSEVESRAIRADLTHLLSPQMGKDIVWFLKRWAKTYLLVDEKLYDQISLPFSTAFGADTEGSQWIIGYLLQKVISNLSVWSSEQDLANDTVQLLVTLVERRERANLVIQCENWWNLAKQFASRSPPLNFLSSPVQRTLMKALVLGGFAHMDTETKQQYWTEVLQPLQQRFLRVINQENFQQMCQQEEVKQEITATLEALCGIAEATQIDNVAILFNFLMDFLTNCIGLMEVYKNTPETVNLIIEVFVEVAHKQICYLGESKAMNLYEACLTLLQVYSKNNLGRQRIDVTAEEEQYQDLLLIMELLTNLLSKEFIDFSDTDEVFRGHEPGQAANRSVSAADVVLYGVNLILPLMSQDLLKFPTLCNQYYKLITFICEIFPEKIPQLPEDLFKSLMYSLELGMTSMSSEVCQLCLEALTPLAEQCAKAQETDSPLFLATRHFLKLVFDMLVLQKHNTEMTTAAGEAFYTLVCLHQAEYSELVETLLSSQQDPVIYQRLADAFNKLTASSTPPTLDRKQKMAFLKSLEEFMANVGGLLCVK
SLC27A4, sequence (chain, as listed by the source): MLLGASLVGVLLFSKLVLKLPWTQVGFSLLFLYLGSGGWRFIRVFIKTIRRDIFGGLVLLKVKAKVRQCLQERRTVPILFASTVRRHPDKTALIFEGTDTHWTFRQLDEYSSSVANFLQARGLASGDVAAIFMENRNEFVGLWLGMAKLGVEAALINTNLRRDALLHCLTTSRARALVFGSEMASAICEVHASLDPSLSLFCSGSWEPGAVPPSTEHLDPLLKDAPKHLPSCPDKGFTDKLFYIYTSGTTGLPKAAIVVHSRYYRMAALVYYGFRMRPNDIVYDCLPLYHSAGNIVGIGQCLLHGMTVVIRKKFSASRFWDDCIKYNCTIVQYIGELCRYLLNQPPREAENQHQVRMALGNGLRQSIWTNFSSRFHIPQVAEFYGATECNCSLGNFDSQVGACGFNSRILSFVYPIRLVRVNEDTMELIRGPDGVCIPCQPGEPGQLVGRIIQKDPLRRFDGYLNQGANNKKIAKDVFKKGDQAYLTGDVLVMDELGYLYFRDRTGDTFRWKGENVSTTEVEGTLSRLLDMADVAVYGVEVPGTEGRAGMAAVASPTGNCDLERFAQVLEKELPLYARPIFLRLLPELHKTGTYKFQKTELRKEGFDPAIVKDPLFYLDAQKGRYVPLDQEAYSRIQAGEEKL
TIMM50, sequence (chain, as listed by the source): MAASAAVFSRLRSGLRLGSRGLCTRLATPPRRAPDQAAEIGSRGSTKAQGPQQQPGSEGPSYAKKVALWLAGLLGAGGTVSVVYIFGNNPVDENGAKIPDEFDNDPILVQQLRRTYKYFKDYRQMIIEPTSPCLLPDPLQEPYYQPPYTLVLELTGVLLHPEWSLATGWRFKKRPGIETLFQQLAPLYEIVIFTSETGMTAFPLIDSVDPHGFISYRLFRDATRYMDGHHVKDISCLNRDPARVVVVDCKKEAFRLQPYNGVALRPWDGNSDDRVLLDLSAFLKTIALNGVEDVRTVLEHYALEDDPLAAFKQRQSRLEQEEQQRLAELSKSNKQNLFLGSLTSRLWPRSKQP
TXNDC12, sequence (chain, as listed by the source): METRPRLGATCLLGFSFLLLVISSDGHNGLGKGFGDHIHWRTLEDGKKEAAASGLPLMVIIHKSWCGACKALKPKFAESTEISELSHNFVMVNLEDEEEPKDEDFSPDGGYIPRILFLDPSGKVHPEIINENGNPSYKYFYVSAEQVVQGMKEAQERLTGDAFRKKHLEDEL
STK38, sequence (chain, as listed by the source): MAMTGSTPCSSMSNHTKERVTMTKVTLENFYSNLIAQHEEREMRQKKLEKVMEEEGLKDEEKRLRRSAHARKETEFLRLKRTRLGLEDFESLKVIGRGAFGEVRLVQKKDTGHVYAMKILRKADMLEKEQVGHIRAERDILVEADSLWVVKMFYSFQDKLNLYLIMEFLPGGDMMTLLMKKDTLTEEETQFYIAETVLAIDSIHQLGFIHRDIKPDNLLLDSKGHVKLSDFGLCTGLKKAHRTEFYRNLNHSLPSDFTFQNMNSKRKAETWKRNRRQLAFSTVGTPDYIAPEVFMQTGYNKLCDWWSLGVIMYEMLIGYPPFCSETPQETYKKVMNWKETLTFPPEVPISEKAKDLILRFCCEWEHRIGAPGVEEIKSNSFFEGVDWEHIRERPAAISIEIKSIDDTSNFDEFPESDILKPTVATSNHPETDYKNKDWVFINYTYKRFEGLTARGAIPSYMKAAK
TMEM55B, sequence (chain, as listed by the source): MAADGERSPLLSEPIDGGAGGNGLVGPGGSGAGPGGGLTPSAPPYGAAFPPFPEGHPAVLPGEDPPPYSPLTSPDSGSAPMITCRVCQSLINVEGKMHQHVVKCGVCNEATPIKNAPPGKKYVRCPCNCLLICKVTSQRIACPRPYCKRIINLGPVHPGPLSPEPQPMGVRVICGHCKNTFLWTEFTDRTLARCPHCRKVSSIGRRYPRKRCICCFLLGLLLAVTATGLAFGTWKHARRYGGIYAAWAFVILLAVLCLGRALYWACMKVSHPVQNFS
SLTM, sequence (chain, as listed by the source): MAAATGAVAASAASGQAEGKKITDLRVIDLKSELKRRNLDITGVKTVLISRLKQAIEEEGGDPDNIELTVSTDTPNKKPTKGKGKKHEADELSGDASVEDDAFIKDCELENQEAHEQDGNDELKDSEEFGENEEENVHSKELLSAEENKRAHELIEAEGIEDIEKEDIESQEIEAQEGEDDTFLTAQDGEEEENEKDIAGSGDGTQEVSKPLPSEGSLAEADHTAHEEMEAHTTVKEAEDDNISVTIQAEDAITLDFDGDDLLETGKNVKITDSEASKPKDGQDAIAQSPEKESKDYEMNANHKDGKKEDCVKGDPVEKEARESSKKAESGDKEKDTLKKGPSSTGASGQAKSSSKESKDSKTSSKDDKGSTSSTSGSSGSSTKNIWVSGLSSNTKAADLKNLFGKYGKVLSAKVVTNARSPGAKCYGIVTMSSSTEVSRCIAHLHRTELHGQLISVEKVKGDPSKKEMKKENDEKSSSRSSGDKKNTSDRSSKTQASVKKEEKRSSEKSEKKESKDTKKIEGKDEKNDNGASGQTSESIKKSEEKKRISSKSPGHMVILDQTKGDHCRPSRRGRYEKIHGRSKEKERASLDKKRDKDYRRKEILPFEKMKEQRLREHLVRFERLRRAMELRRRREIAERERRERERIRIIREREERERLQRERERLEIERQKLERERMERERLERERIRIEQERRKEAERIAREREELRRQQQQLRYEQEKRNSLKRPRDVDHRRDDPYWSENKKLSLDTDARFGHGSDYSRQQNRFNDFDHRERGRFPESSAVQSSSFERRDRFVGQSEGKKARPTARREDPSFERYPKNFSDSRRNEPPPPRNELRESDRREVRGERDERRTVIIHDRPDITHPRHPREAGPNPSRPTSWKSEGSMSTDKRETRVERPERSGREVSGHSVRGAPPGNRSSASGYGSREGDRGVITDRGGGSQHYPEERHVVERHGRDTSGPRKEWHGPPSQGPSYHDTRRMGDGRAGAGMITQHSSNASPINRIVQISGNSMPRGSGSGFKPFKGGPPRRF
ZNF787, sequence (chain, as listed by the source): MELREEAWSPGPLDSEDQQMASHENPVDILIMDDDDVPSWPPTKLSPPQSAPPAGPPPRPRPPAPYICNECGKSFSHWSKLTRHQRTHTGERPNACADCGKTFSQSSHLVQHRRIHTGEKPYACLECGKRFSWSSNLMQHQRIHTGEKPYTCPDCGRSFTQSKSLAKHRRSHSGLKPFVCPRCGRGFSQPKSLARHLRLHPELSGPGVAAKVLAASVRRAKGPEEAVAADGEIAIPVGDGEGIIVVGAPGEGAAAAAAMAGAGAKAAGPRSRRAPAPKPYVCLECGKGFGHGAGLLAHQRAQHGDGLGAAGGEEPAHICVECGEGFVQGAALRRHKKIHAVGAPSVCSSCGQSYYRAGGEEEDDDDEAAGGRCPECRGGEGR
TROVE2, sequence (chain, as listed by the source): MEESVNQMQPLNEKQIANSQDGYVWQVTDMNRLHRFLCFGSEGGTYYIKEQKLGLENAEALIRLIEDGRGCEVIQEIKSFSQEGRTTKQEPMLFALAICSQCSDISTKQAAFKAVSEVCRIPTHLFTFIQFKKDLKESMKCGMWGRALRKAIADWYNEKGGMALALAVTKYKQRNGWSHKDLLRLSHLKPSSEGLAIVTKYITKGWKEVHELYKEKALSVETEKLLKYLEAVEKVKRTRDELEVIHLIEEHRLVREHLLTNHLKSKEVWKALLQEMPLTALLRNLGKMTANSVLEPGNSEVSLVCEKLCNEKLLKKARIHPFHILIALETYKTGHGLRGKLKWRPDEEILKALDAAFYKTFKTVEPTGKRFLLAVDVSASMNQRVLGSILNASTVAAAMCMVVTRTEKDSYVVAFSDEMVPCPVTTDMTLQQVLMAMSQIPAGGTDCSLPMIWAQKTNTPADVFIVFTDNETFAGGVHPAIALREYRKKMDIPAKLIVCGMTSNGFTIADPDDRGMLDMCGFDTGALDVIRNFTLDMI

SLC27A4
solubility in G1/S (log2) (HeLa Kyoto [1]): -0.211
melting temperature (HeLa Kyoto [2]; cell cycle stage: G1/S): 50.3 °C
melting temperature (HeLa Kyoto [2]; cell cycle stage: mitosis): 50.9 °C
solubility change mitosis (log2) (HeLa Kyoto [3]): -0.138
thermal stability score (HeLa Kyoto [4]; [5]): 0.342
thermal stability score (HeLa Kyoto [4]; cell cycle stage: mitosis): 0.581

SLC35E1
solubility in G1/S (log2) (HeLa Kyoto [1]): -0.14
melting temperature (HeLa Kyoto [2]; cell cycle stage: G1/S): 51.3 °C
melting temperature (HeLa Kyoto [2]; cell cycle stage: mitosis): 52 °C
solubility change mitosis (log2) (HeLa Kyoto [3]): -0.172
thermal stability score (HeLa Kyoto [4]; [5]): 0.109
thermal stability score (HeLa Kyoto [4]; cell cycle stage: mitosis): 0.648

SLTM
solubility in G1/S (log2) (HeLa Kyoto [1]): -1.17
melting temperature (HeLa Kyoto [2]; cell cycle stage: G1/S): 51.1 °C
melting temperature (HeLa Kyoto [2]; cell cycle stage: mitosis): 51.4 °C
solubility change mitosis (log2) (HeLa Kyoto [3]): 0.595
thermal stability score (HeLa Kyoto [4]; [5]): 0.205
thermal stability score (HeLa Kyoto [4]; cell cycle stage: mitosis): 2.43

STK38
solubility in G1/S (log2) (HeLa Kyoto [1]): -0.0452
melting temperature (HeLa Kyoto [2]; cell cycle stage: G1/S): 48.3 °C
melting temperature (HeLa Kyoto [2]; cell cycle stage: mitosis): 49.1 °C
solubility change mitosis (log2) (HeLa Kyoto [3]): -0.159
thermal stability score (HeLa Kyoto [4]; [5]): 0.464
thermal stability score (HeLa Kyoto [4]; cell cycle stage: mitosis): 1.32

SUMF2
solubility in G1/S (log2) (HeLa Kyoto [1]): 0.289
melting temperature (HeLa Kyoto [2]; cell cycle stage: G1/S): 52.9 °C
melting temperature (HeLa Kyoto [2]; cell cycle stage: mitosis): 54.7 °C
solubility change mitosis (log2) (HeLa Kyoto [3]): 0.00354
thermal stability score (HeLa Kyoto [4]; [5]): 4.15
thermal stability score (HeLa Kyoto [4]; cell cycle stage: mitosis): 3.23

TANC1
solubility in G1/S (log2) (HeLa Kyoto [1]): -0.0445
melting temperature (HeLa Kyoto [2]; cell cycle stage: G1/S): 50.1 °C
melting temperature (HeLa Kyoto [2]; cell cycle stage: mitosis): 50.7 °C
solubility change mitosis (log2) (HeLa Kyoto [3]): -0.166
thermal stability score (HeLa Kyoto [4]; [5]): -0.0485
thermal stability score (HeLa Kyoto [4]; cell cycle stage: mitosis): 0.875

TARBP1
solubility in G1/S (log2) (HeLa Kyoto [1]): -0.262
melting temperature (HeLa Kyoto [2]; cell cycle stage: G1/S): 52.3 °C
melting temperature (HeLa Kyoto [2]; cell cycle stage: mitosis): 51.6 °C
solubility change mitosis (log2) (HeLa Kyoto [3]): -0.207
thermal stability score (HeLa Kyoto [4]; [5]): 0.335
thermal stability score (HeLa Kyoto [4]; cell cycle stage: mitosis): -0.385

TENM3
solubility in G1/S (log2) (HeLa Kyoto [1]): 0.0433
melting temperature (HeLa Kyoto [2]; cell cycle stage: G1/S): 54.9 °C
melting temperature (HeLa Kyoto [2]; cell cycle stage: mitosis): 55.6 °C
solubility change mitosis (log2) (HeLa Kyoto [3]): -0.0942
thermal stability score (HeLa Kyoto [4]; [5]): -2.98
thermal stability score (HeLa Kyoto [4]; cell cycle stage: mitosis): -2.29

THADA
solubility in G1/S (log2) (HeLa Kyoto [1]): -0.395
melting temperature (HeLa Kyoto [2]; cell cycle stage: G1/S): 51.6 °C
melting temperature (HeLa Kyoto [2]; cell cycle stage: mitosis): 50.2 °C
solubility change mitosis (log2) (HeLa Kyoto [3]): -0.159
thermal stability score (HeLa Kyoto [4]; [5]): -0.0368
thermal stability score (HeLa Kyoto [4]; cell cycle stage: mitosis): -1.12

TIMM50
solubility in G1/S (log2) (HeLa Kyoto [1]): 0.393
melting temperature (HeLa Kyoto [2]; cell cycle stage: G1/S): 51.4 °C
melting temperature (HeLa Kyoto [2]; cell cycle stage: mitosis): 50.8 °C
solubility change mitosis (log2) (HeLa Kyoto [3]): -0.0286
thermal stability score (HeLa Kyoto [4]; [5]): -0.406
thermal stability score (HeLa Kyoto [4]; cell cycle stage: mitosis): -0.388

TMED2
solubility in G1/S (log2) (HeLa Kyoto [1]): 0.169
melting temperature (HeLa Kyoto [2]; cell cycle stage: G1/S): 55.5 °C
melting temperature (HeLa Kyoto [2]; cell cycle stage: mitosis): 55.3 °C
solubility change mitosis (log2) (HeLa Kyoto [3]): -0.171
thermal stability score (HeLa Kyoto [4]; [5]): 1.23
thermal stability score (HeLa Kyoto [4]; cell cycle stage: mitosis): 2.29

TMEM55B
solubility in G1/S (log2) (HeLa Kyoto [1]): 0.135
melting temperature (HeLa Kyoto [2]; cell cycle stage: G1/S): 53.4 °C
melting temperature (HeLa Kyoto [2]; cell cycle stage: mitosis): 53.5 °C
solubility change mitosis (log2) (HeLa Kyoto [3]): -0.162
thermal stability score (HeLa Kyoto [4]; [5]): -1.51
thermal stability score (HeLa Kyoto [4]; cell cycle stage: mitosis): -1.58

TOP2A
solubility in G1/S (log2) (HeLa Kyoto [1]): -2.15
melting temperature (HeLa Kyoto [2]; cell cycle stage: G1/S): 51 °C
melting temperature (HeLa Kyoto [2]; cell cycle stage: mitosis): 52.8 °C
solubility change mitosis (log2) (HeLa Kyoto [3]): -0.207
thermal stability score (HeLa Kyoto [4]; [5]): -0.453
thermal stability score (HeLa Kyoto [4]; cell cycle stage: mitosis): 3.49

TRIO
solubility in G1/S (log2) (HeLa Kyoto [1]): -0.25
melting temperature (HeLa Kyoto [2]; cell cycle stage: G1/S): 48.9 °C
melting temperature (HeLa Kyoto [2]; cell cycle stage: mitosis): 49.5 °C
solubility change mitosis (log2) (HeLa Kyoto [3]): -0.0514
thermal stability score (HeLa Kyoto [4]; [5]): -0.165
thermal stability score (HeLa Kyoto [4]; cell cycle stage: mitosis): 0.739

TRIP11
solubility in G1/S (log2) (HeLa Kyoto [1]): 0.34
melting temperature (HeLa Kyoto [2]; cell cycle stage: G1/S): 49.1 °C
melting temperature (HeLa Kyoto [2]; cell cycle stage: mitosis): 49 °C
solubility change mitosis (log2) (HeLa Kyoto [3]): -0.135
thermal stability score (HeLa Kyoto [4]; [5]): 0.295
thermal stability score (HeLa Kyoto [4]; cell cycle stage: mitosis): 1.48

TROVE2
solubility in G1/S (log2) (HeLa Kyoto [1]): -0.149
melting temperature (HeLa Kyoto [2]; cell cycle stage: G1/S): 57.5 °C
melting temperature (HeLa Kyoto [2]; cell cycle stage: mitosis): 54.7 °C
solubility change mitosis (log2) (HeLa Kyoto [3]): -0.0914
thermal stability score (HeLa Kyoto [4]; [5]): -4.29
thermal stability score (HeLa Kyoto [4]; cell cycle stage: mitosis): -4.23

TXNDC5
solubility in G1/S (log2) (HeLa Kyoto [1]): 0.348
melting temperature (HeLa Kyoto [2]; cell cycle stage: G1/S): 55.3 °C
melting temperature (HeLa Kyoto [2]; cell cycle stage: mitosis): 57.3 °C
solubility change mitosis (log2) (HeLa Kyoto [3]): -0.0668
thermal stability score (HeLa Kyoto [4]; [5]): 3.49
thermal stability score (HeLa Kyoto [4]; cell cycle stage: mitosis): 3.79

TXNDC12
solubility in G1/S (log2) (HeLa Kyoto [1]): 0.365
melting temperature (HeLa Kyoto [2]; cell cycle stage: G1/S): 53.5 °C
melting temperature (HeLa Kyoto [2]; cell cycle stage: mitosis): 54.2 °C
solubility change mitosis (log2) (HeLa Kyoto [3]): 0.232
thermal stability score (HeLa Kyoto [4]; [5]): -0.513
thermal stability score (HeLa Kyoto [4]; cell cycle stage: mitosis): -0.814

UGGT1
solubility in G1/S (log2) (HeLa Kyoto [1]): -0.0908
melting temperature (HeLa Kyoto [2]; cell cycle stage: G1/S): 54.2 °C
melting temperature (HeLa Kyoto [2]; cell cycle stage: mitosis): 55 °C
solubility change mitosis (log2) (HeLa Kyoto [3]): -0.156
thermal stability score (HeLa Kyoto [4]; [5]): 3.04
thermal stability score (HeLa Kyoto [4]; cell cycle stage: mitosis): 4.09

USP16
solubility in G1/S (log2) (HeLa Kyoto [1]): -0.321
melting temperature (HeLa Kyoto [2]; cell cycle stage: G1/S): 50.4 °C
melting temperature (HeLa Kyoto [2]; cell cycle stage: mitosis): 49.5 °C
solubility change mitosis (log2) (HeLa Kyoto [3]): 0.122
thermal stability score (HeLa Kyoto [4]; [5]): -0.114
thermal stability score (HeLa Kyoto [4]; cell cycle stage: mitosis): 0.382

WNK1
solubility in G1/S (log2) (HeLa Kyoto [1]): 0.0681
melting temperature (HeLa Kyoto [2]; cell cycle stage: G1/S): 51.9 °C
melting temperature (HeLa Kyoto [2]; cell cycle stage: mitosis): 52.2 °C
solubility change mitosis (log2) (HeLa Kyoto [3]): -0.164
thermal stability score (HeLa Kyoto [4]; [5]): 1.74
thermal stability score (HeLa Kyoto [4]; cell cycle stage: mitosis): 3.55

XPNPEP3
solubility in G1/S (log2) (HeLa Kyoto [1]): 0.275
melting temperature (HeLa Kyoto [2]; cell cycle stage: G1/S): 53.4 °C
melting temperature (HeLa Kyoto [2]; cell cycle stage: mitosis): 53.3 °C
solubility change mitosis (log2) (HeLa Kyoto [3]): -0.146
thermal stability score (HeLa Kyoto [4]; [5]): -0.645
thermal stability score (HeLa Kyoto [4]; cell cycle stage: mitosis): -2.12

XPO4
solubility in G1/S (log2) (HeLa Kyoto [1]): -0.0631
melting temperature (HeLa Kyoto [2]; cell cycle stage: G1/S): 52.4 °C
melting temperature (HeLa Kyoto [2]; cell cycle stage: mitosis): 52 °C
solubility change mitosis (log2) (HeLa Kyoto [3]): -0.113
thermal stability score (HeLa Kyoto [4]; [5]): 0.898
thermal stability score (HeLa Kyoto [4]; cell cycle stage: mitosis): 0.432

YBX3
solubility in G1/S (log2) (HeLa Kyoto [1]): 0.366
melting temperature (HeLa Kyoto [2]; cell cycle stage: G1/S): 54 °C
melting temperature (HeLa Kyoto [2]; cell cycle stage: mitosis): 53.8 °C
solubility change mitosis (log2) (HeLa Kyoto [3]): -0.0607
thermal stability score (HeLa Kyoto [4]; [5]): -3.49
thermal stability score (HeLa Kyoto [4]; cell cycle stage: mitosis): -8.21

ZCCHC6
solubility in G1/S (log2) (HeLa Kyoto [1]): -0.226
melting temperature (HeLa Kyoto [2]; cell cycle stage: G1/S): 49.9 °C
melting temperature (HeLa Kyoto [2]; cell cycle stage: mitosis): 49.3 °C
solubility change mitosis (log2) (HeLa Kyoto [3]): 0.0648
thermal stability score (HeLa Kyoto [4]; [5]): 1.03
thermal stability score (HeLa Kyoto [4]; cell cycle stage: mitosis): 2.02

ZFYVE16
solubility in G1/S (log2) (HeLa Kyoto [1]): -0.0282
melting temperature (HeLa Kyoto [2]; cell cycle stage: G1/S): 53.2 °C
melting temperature (HeLa Kyoto [2]; cell cycle stage: mitosis): 52.7 °C
solubility change mitosis (log2) (HeLa Kyoto [3]): -0.171
thermal stability score (HeLa Kyoto [4]; [5]): -2.53
thermal stability score (HeLa Kyoto [4]; cell cycle stage: mitosis): -1.48

ZNF629
solubility in G1/S (log2) (HeLa Kyoto [1]): -0.355
melting temperature (HeLa Kyoto [2]; cell cycle stage: G1/S): 53.4 °C
melting temperature (HeLa Kyoto [2]; cell cycle stage: mitosis): 52.9 °C
solubility change mitosis (log2) (HeLa Kyoto [3]): -0.0563
thermal stability score (HeLa Kyoto [4]; [5]): 0.477
thermal stability score (HeLa Kyoto [4]; cell cycle stage: mitosis): -1.32

ZNF787
solubility in G1/S (log2) (HeLa Kyoto [1]): -0.0171
melting temperature (HeLa Kyoto [2]; cell cycle stage: G1/S): 51.9 °C
melting temperature (HeLa Kyoto [2]; cell cycle stage: mitosis): 54.5 °C
solubility change mitosis (log2) (HeLa Kyoto [3]): 0.398
thermal stability score (HeLa Kyoto [4]; [5]): -0.71
thermal stability score (HeLa Kyoto [4]; cell cycle stage: mitosis): -1.22

ZNFX1
solubility in G1/S (log2) (HeLa Kyoto [1]): -0.239
melting temperature (HeLa Kyoto [2]; cell cycle stage: G1/S): 50.3 °C
melting temperature (HeLa Kyoto [2]; cell cycle stage: mitosis): 49.5 °C
solubility change mitosis (log2) (HeLa Kyoto [3]): -0.0887
thermal stability score (HeLa Kyoto [4]; [5]): -0.325
thermal stability score (HeLa Kyoto [4]; cell cycle stage: mitosis): 0.64

ZWILCH
solubility in G1/S (log2) (HeLa Kyoto [1]): 0.0446
melting temperature (HeLa Kyoto [2]; cell cycle stage: G1/S): 50.9 °C
melting temperature (HeLa Kyoto [2]; cell cycle stage: mitosis): 50.2 °C
solubility change mitosis (log2) (HeLa Kyoto [3]): -0.229
thermal stability score (HeLa Kyoto [4]; [5]): 0.346
thermal stability score (HeLa Kyoto [4]; cell cycle stage: mitosis): 0.376
